Molecular target: T1, 6xHis-SUMO-Gin4 (S. cerevisiae, UniProt Q12263 1-1142)
T1 sequence (looked up): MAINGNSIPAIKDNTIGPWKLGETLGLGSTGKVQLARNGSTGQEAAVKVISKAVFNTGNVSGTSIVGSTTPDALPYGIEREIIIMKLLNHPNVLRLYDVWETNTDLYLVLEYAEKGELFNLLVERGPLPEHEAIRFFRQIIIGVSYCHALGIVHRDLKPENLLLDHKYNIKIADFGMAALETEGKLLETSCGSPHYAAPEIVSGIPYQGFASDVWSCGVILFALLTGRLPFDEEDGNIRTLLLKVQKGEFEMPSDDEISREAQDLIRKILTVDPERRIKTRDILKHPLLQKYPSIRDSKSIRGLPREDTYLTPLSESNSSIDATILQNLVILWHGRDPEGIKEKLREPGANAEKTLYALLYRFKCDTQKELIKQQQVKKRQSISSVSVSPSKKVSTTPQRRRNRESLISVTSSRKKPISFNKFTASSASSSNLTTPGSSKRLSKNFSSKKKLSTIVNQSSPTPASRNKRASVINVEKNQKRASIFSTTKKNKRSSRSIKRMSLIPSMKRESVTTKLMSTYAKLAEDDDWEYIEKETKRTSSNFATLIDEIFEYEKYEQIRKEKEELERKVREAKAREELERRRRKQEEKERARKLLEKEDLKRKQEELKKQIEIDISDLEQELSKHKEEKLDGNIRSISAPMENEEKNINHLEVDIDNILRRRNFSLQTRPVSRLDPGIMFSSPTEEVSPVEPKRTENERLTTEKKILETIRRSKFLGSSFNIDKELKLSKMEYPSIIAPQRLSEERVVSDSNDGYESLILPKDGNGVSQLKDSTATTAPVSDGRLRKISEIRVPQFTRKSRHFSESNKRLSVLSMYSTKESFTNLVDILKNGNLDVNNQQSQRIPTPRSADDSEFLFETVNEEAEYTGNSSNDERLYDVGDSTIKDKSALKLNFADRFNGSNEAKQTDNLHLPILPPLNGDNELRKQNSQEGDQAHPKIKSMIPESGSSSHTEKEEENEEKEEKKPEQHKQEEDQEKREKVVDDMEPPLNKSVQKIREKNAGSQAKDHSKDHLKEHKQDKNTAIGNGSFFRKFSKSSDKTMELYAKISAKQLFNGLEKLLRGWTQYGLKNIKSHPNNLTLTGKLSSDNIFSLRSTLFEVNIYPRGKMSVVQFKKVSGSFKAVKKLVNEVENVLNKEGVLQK
Test: pull-down

B1: GST-Elm1^WT (enzyme, S. cerevisiae, UniProt P32801 1-640, looked up)
chain: MSPRQLIPTLIPEWAPLSQQSCIREDELDSPPITPTSQTSSFGSSFSQQKPTYSTIIGENIHTILDEIRPYVKKITVSDQDKKTINQYTLGVSAGSGQFGYVRKAYSSTLGKVVAVKIIPKKPWNAQQYSVNQVMRQIQLWKSKGKITTNMSGNEAMRLMNIEKCRWEIFAASRLRNNVHIVRLIECLDSPFSESIWIVTNWCSLGELQWKRDDDEDILPQWKKIVISNCSVSTFAKKILEDMTKGLEYLHSQGCIHRDIKPSNILLDEEEKVAKLSDFGSCIFTPQSLPFSDANFEDCFQRELNKIVGTPAFIAPELCHLGNSKRDFVTDGFKLDIWSLGVTLYCLLYNELPFFGENEFETYHKIIEVSLSSKINGNTLNDLVIKRLLEKDVTLRISIQDLVKVLSRDQPIDSRNHSQISSSSVNPVRNEGPVRRFFGRLLTKKGKKKTSGKGKDKVLVSATSKVTPSIHIDEEPDKECFSTTVLRSSPDSSDYCSSLGEEAIQVTDFLDTFCRSNESLPNLTVNNDKQNSDMKTDRSESSSHSSLKIPTPIKAMIRLKSSPKENGNRTHINCSQDKPSSPLMDRTVGKRTVNNSGARKLAHSSNILNFKAYINSEDSDIRETVEDVKTYLNFADNGQI
B1: binds.

Reference: paper PMC10913813 (The Journal of Cell Biology, 2024)
